The series concerns the molecule itself. As to the kind of experiment: cryo-EM structure; RbcL-Raf1 supercomplex co-expressed with GroES/EL in E. coli, purified by Ni-IMAC and Superdex 200; 1.2 mg/mL on Quantifoil grids; 200 kV Tecnai F20; 16,022 particles; 4.28 Å.

The stoichiometry N is the number of molecules, sites or subunits per partner or assembly.

B1: Rubisco accumulation factor 1 (Raf1) (Synechococcus elongatus PCC7942), recombinant (natural protein, UniProt Q31Q05 1-356, looked up)
chain: MREFTPTTLSEEERQELLGQLRRKEGRWLAWARACQTLLKNGLNPQTLFEATGFEPIQQNQITVAMQVYDSILRQDPPAHVRETYQEWGSDLLYELRELDQEQRSLCAQLALERKLDADQIREVAKATKDFCRLPKQPENFDRHPGDAVAHQCWRLAQERTDLTERSRLIARGLQFAQSAGARALIEALLLDLSGVPSRKPPMLPIYRLETEEDLPRLLPFAGTLPLSSSQIEAIAAVEAEGPFGLVSSPQGQQWLALPGWQAILTAEDPIACLEQIDRLPNAPEGPTEAVVLVVDRADRDWDADHFFLVEQAEGARIQWSPSAIAAPILGRLVLILRPKRVLDEAAIATPWQFEE
notes: Raf1, Rubisco accumulation (assembly) factor 1, Synechococcus elongatus PCC7942, gene synpcc7942_0833 amplified from genomic DNA; N-terminal α-helical domain (Raf1α), flexible linker, C-terminal β-sheet dimerization domain (Raf1β); Only the Raf1α domains are modelled in PDB 6SMH; Raf1β could not be resolved; Four Raf1 dimers (eight chains) sit on one RbcL8 core; also called Rubisco assembly …
Take B1: the “stoichiometry N” value turned out to be 2.

B2: Rubisco large subunit RbcL (Synechococcus elongatus PCC7942), recombinant, in the RbcL-Raf1 supercomplex (natural protein, UniProt Q31NB3 1-472, looked up)
chain: MPKTQSAAGYKAGVKDYKLTYYTPDYTPKDTDLLAAFRFSPQPGVPADEAGAAIAAESSTGTWTTVWTDLLTDMDRYKGKCYHIEPVQGEENSYFAFIAYPLDLFEEGSVTNILTSIVGNVFGFKAIRSLRLEDIRFPVALVKTFQGPPHGIQVERDLLNKYGRPMLGCTIKPKLGLSAKNYGRAVYECLRGGLDFTKDDENINSQPFQRWRDRFLFVADAIHKSQAETGEIKGHYLNVTAPTCEEMMKRAEFAKELGMPIIMHDFLTAGFTANTTLAKWCRDNGVLLHIHRAMHAVIDRQRNHGIHFRVLAKCLRLSGGDHLHSGTVVGKLEGDKASTLGFVDLMREDHIEADRSRGVFFTQDWASMPGVLPVASGGIHVWHMPALVEIFGDDSVLQFGGGTLGHPWGNAPGATANRVALEACVQARNEGRDLYREGGDILREAGKWSPELAAALDLWKEIKFEFETMDKL
notes: RbcL, large subunit of ribulose-1,5-bisphosphate carboxylase/oxygenase, Synechococcus elongatus PCC7942, gene synpcc7942_1426 amplified from genomic DNA; The complex was captured on Ni-IMAC as a 'His-fusion complex'; also called RbcL8; RbcL8 core; source: E. coli BL21 DE3, co-expressed with Raf1 (pET19b-RbcL-Raf1) and GroES/EL, purified as a complex (Ni-IMAC, Superdex 200)
For the protein B2, the “stoichiometry N” value was determined as 8.

(Values after PMC7382273, “Rubisco accumulation factor 1 (Raf1) plays essential roles in mediating Rubisco assembly and carboxysome biogenesis” (Proceedings of the National Academy of Sciences of the …, 2020).)
